The source of these data is patent US20230270861A1, “Inhibitors of the Artemin Pathway for Treatment of Cancer” (The University of Chicago, priority 2020, published 2023).

For assay [1] the following is noted: patients; cited from earlier work.
The test system of assay [2] is LLC tumor. The assay is described as follows: Tumor growth of LLC tumor-bearing mice treated with IR or anti-PD-L1 plus test agent. It counts as in vivo, mouse. The note with it: LLC tumor-bearing B6 mice; for Tumor growth: influence on the therapeutic effect of IR and PD-L1 blockade: agent combined with 20 Gy IR or anti-PD-L1. Here is the method:
Tumor models and treatments. 1×10^6 MC38, LLC, or B16-SIY tumor cells were subcutaneously injected into the flank of mice. On day 10 after tumor inoculation, tumors were either irradiated with one dose of 20 Gy or mice received sham treatment. For anti-PD-L1 treatment experiments, 200 μg anti-PD-L1 (10F.9G2) or isotype control was given by i.p. every three days for a total of four times starting on day 10 after tumor inoculation. For type I IFN blockade experiments, 200 μg anti-IFNAR1 were intratumorally injected on days 0 and 2 after irradiation. For CD4 or CD8 T cell depletion experiments, 200 μg anti-CD4 or anti-CD8 mAb was delivered four times by i.p. injection every 3 days starting 1 day before therapies. Artemin-neutralizing antibody was delivered i.t. at 1 μg/mouse starting on day of irradiation, every 2 days for 7 doses. For Ter-cell depletion, anti-ter119 was injected i.p. at 20 μg/mouse every 2 days for 4 doses. For Ter-cell or artemin treatment groups, mice were administered 1×10^7 purified Ter cells i.v. every other day for a total of three doses, or mice were treated with 0.5 μg/mouse artemin i.t. every other day starting on day 0 of therapies throughout the studies. For EPO treatment groups, mice were treated with 20 U/mouse EPO i.v. every other day throughout the studies, starting on day 0 of the therapies. IFN-γ was administered through intrasplenic injection on day 15 post tumor implantation at 2 μg/mouse for 1 dose. LOXO-292 was administered by oral gavaging at 100 μg/mouse/day throughout the entire studies, starting on day 0 of the therapies. Spleens were harvested on day 20 or at indicated times post-inoculation for analysis of spleen size or splenic cells. Tumor size was monitored and calculated with the formula for area (length×width).

For assay [3], the system named is LLC tumor. The assay is described as follows: Spontaneous lung metastasis (number of lung nodules) in LLC tumor-bearing mice. It counts as in vivo, mouse. The note with it: murine LLC model; combined with IR or anti-PD-L1. Here is the method: FIG. 55. Number of lung nodules in LLC tumor-bearing mice at the end of tumor growth measurement: anti-PD-L1 treatment. B6 mice were inoculated with LLC cells. On day 10 post inoculation, tumor-bearing mice were treated with anti-PD-L1. Splenectomy was performed 1 day before treatments. Representative data are shown from two or three experiments conducted with 3-5 mice or samples per group. Data are represented as mean±SD. **p<0.01 and ***p<0.001.
FIGS. 62A-62B. Number of lung modules. B6 mice were inoculated with LLC cells. On day 10 post inoculation, tumor-bearing mice were treated with either IR (FIG. 62A) or anti-PD-L1 (FIG. 62B) plus LOXO-292. Splenectomy was performed 1 day before treatments. […] Representative data are shown from two or three experiments conducted with 3-5 mice or samples per group. Data are represented as mean±SD. *p<0.05, **p<0.01, and ***p<0.001.
Tumor models and treatments. 1×10^6 MC38, LLC, or B16-SIY tumor cells were subcutaneously injected into the flank of mice. On day 10 after tumor inoculation, tumors were either irradiated with one dose of 20 Gy or mice received sham treatment. For anti-PD-L1 treatment experiments, 200 μg anti-PD-L1 (10F.9G2) or isotype control was given by i.p. every three days for a total of four times starting on day 10 after tumor inoculation. […] Tumor size was monitored and calculated with the formula for area (length×width).

Assay [4] has as its system p-AKT and p-ERK in LLC cells. The assay is described as follows: Western blot of p-AKT and p-ERK in LLC cells treated with ARTN and LOXO-292. It counts as cell-based, mouse. The note with it: 100 ng/mL ARTN and 1 μg/mL LOXO-292. Here is the method:
FIGS. 61A-61C. Tumor growth of LLC tumor-bearing mice treated with LOXO-292 and either IR (FIG. 61A) or anti-PD-L1 (FIG. 61B). (FIG. 61C) p-AKT and p-ERK in LLC cells treated with 100 ng/mL ARTN and 1 μg/mL LOXO-292 were detected by western blot. Representative data are shown from two or three experiments. Data are represented as mean±SD. *p<0.05, **p<0.01, and ***p<0.001.
Western Blot Analysis. Whole-cell protein was extracted with Triton-X100 buffer (150 mM sodium chloride, 50 mM Tris, 1% Triton-X100; pH 8.0) with proteinase inhibitors (Thermo Scientific®). Immuno-blotting analyses were performed as previously described (Hou, Y., Liang, H., Rao, E., Zheng, W., Huang, X., Deng, L., Zhang, Y., Yu, X., Xu, M., Mauceri, H., et al. (2018). Non-canonical NF-kappaB Antagonizes STING Sensor-Mediated DNA Sensing in Radiotherapy. Immunity 49, 490-503 e494). The amount of loaded protein was normalized to GAPDH (60004-1-Ig, Proteintech Group) or actin (8226, Abcam).
A general note: In western blotting, separated proteins are transferred to a membrane and probed.

Assay [5] has as its system MC38 murine colon cancer tumors. Put plainly: In vivo MC38 murine colon cancer treatment with artemin (i.t.), flow cytometry of tumor cells. Set-up: species or system mouse. Here is the method: (§1) FIGS. 71A-71I. […] (FIGS. 71A-71E) CD8 T cells were purified from WT spleen and treated with recombinant artemin for 24 hours (150 ng/mL for FIGS. 71B, 71C, 71D, and 71E). T proliferation was examined (FIG. 71A), and the indicated effector molecules were analyzed by flow cytometry (FIGS. 71B, 71C, and 71D) and q-PCR (FIG. 71E). (FIGS. 71F-71I) MC38 murine colon cancer tumors were treated with artemin (i.t.), and single cell suspensions of tumors were stained with indicated markers and examined by flow cytometry (FIGS. 71F, 71G, 71H, and 71I).
FIGS. 72A-72C. […] MC38 tumor were digested into single cell suspension and stained with markers that characterize T cells, DCs, and MDSCs. Flow cytometry was performed. […] (FIG. 72B) Changes in CD4 T cells.
In vivo testing: MC38 murine colon cancer treatment with artemin. Established MC3 8 murine colon cancer tumors were treated with artemin by intra-tumoral injection. Tumors were digested into single cell suspension, stimulated and stained with intracellular antibodies. Cells were analyzed by flow cytometry.
(In flow cytometry, cells or beads pass a laser one at a time.)

Assay [6] deals with CD8 T cells and bone marrow derived MDSCs. The assay is described as follows: qPCR of possible artemin receptors in CD8 T cells and MDSCs co-cultured with artemin. The class given is cell-based, mouse. As to conditions: co-culture with artemin. An excerpt: (§2) FIGS. 73A-73D. Study of the effects of artemin and radiation on mRNA expression of possible artemin receptors in different immune cells. (FIG. 73A) mRNA level of known GDNF receptors in CD8+ T cells after co-culture with artemin. (FIG. 73B) mRNA level of known GDNF receptors in MDSCs (CD11b+Ly6C+) cells. GFRα1, GFRα3 and NCAM expression in DC (FIG. 73C) and natural killer (NK) cells (FIG. 73D) in tumors responding to artemin or/and radiation treatments. R1, GFRα1; R3, GFRα3.
Quantitative PCR (qPCR). Expression of possible artemin receptors GFRα1 (primers: SEQ ID NOs: 5, 6), GFRα3 (primers: SEQ ID NOs: 7, 8), Syndecan 3 (primers: SEQ ID NOs: 9, 10), NCAM (primers: SEQ ID Nos: 11, 12), and RET (SEQ ID Nos: 13, 14) was analyzed by qPCR in CD8 T cells and bone marrow derived MDSCs during co-culture with artemin.
On the technique in general: Real-time PCR tracks product formation cycle by cycle.

Assay [7] deals with CD8 T cells. Put plainly: In vitro CD8 T cell treatment with artemin. It counts as cell-based, mouse. As to conditions: 24 hours. Here is the method:
as §1
In vitro testing: CD8 T cell treatment with artemin. CD8 T cells were isolated from spleens of naïve mice. CD8 T cells were cultured with T cell activation beads for 3 days and labeled with DNA dye cellTrace violet, followed by co-culturing with 150 ng/mL recombinant artemin for 24 hours. T cells were then washed and stimulated by stimulation cocktail and protein transport cocktail for 6 hours before being subjected to intracellular antibody staining.

Assay [8] relates to MC38 cells. The assay is described as follows: Colony formation assay of irradiated MC38 cells. It counts as cell-based, mouse. As to conditions: 0, 1 or 3 Gy; 100 ng/mL artemin. Here is the method: FIG. 40. Colony formation assay of MC38 cells treated with 0, 1, or 3 Gy irradiation. MC38 cells were either co-cultured with 2×10^6 Ter-cells (left) sorted from spleens of tumor-bearing mice, or treated with 100 ng/mL artemin (right). Representative data are shown from three experiments. Data are represented as mean±SD. *p<0.05, **p<0.01, and ***p<0.001.

Assay [9] has as its system MC38-OTI-zsGreen cells. The assay is described as follows: CD8+ T cell mediated killing (apoptosis) of MC38-OTI-zsGreen cells. The note with it: 100 ng/mL artemin for 6 h. The class given is cell-based, mouse. Here is the method:
FIGS. 41A-41B. (FIG. 41A) Apoptosis of MC38 cells as analyzed by flow cytometry. 1×10^5 MC38-OTI-zsGreen cells were co-cultured with 2×10^5 CD8^+ T cells purified from OTI mice in 96-well U bottomed plates. Tumor cells were either co-cultured with 2×10^5 Ter-cells sorted from spleens of tumor-bearing mice or treated with 100 ng/mL artemin for 6 h. Representative data are shown from three experiments. Data are represented as mean±SD. *p<0.05, **p<0.01 and ***p<0.001. (FIG. 41B) Apoptosis of MC38 cells was analyzed by flow cytometry. 1×10^5 MC38-OTI-zsGreen cells were co-cultured with 2×10^5 CD8+ T cells purified from OTI mice in 96-well U bottom plates. Tumor cells were either co-cultured with 2×10^5 Ter-cells sorted from spleen of tumor-bearing mice or treated with 100 ng/mL artemin (ARTN) for 6 h. Representative data are shown from two or three experiments conducted with 3-5 mice or samples per group.

Assay [10] concerns Lewis lung carcinoma (LLC) tumors. The assay is described as follows: Flow cytometry of GFRα1, GFRα3 and NCAM in LLC tumors treated with artemin and/or IR. It counts as in vivo, mouse.
Source text: as §2
Radiation (IR) treatment analysis. We treated established Lewis lung carcinoma (LLC) tumors with control, artemin, IR, and artemin+IR (20 Gy IR). Flow cytometry with staining of GFRα1, GFRα3 and NCAM receptors was performed.

Take `COc1ccc(CN2C3CC2CN(c2ccc(-c4cc(OCC(C)(C)O)cn5ncc(C#N)c45)cn2)C3)cn1` [LOXO-292]: the “Outcomes for patients with RET fusion-positive cancers” value in assay [1] was “improved outcomes”. Besides, the “Tumor growth: therapeutic effect of IR and PD-L1 blockade in the context of EPO treatment” value in assay [2] (IR or anti-PD-L1 plus EPO plus agent) was “restored the therapeutic effects of IR and PD-L1 blockade”. Also, the “Tumor growth: influence on the therapeutic effect of IR and PD-L1 blockade” value in assay [2] was “enhanced the effects of IR and PD-L1 blockade”. In addition, the “Spontaneous lung metastasis: influence on the effects of IR and PD-L1 blockade” value in assay [3] was “promoted the effects of IR and PD-L1 blockade”. For the same molecule, the “Artemin-induced activation of downstream signaling (p-AKT, p-ERK)” value in assay [4] is on record as “inhibited artemin-induced activation of downstream signaling”.

B1: artemin: Recombinant mouse artemin (1085-AR) from R&D Systems; neurotropic factor of the GDNF family (protein)
chain: AGTRSSRARTTDARGCRLRSQLVPVSALGLGHSSDELIRFRFCSGSCRRARSQHDLSLASLLGAGALRSPPGSRPISQPCCRPTRYEAVSFMDVNSTWRTVDHLSATACGCLG
Regarding B1, in assay [5], the “CD4 T helper cell numbers” value is recorded as “not significantly changed”; the “PD-L1 expression on dendritic cells (CD11C+) and MDSCs (CD11b+Ly6C+)” value is “induced PD-L1 expression”; the “Treg percentage in CD4 T cells” value is given as “significantly increased”. In assay [5] (artemin i.t.), the “Frequency of total CD8 T cell among CD45+ cells” value is “did not alter frequency”; the “IFN-γ production in intratumoral T cells” value is listed as “not significant”; the “Production of granzyme B and TNFα proteins in intratumoral T cells” value is recorded as “significantly reduced”. Also, the “Expression of exhaustion markers PD-1, LAG3 and TIM3” value in assay [5] (intratumoral T cells) is on record as “did not change the expression”. In assay [6], the “GFRα1 mRNA in MDSC cells” value is recorded as “induction of GFRα1” and the “GFRα3 mRNA in CD8 T cells” value was “Induction of GFRα3”. In addition, the “CD8 T cell proliferation” value in assay [7] (200 ng/mL) was “reduced CD8 T cell proliferation”. In addition, the “Production of IFN-γ, granzyme B and TNFα in T cells (protein and RNA level)” value in assay [7] was “decreases in production”. Further, the “Radio-resistance of MC38 tumor cells (colony formation)” value in [8] is recorded as “increased the radio-resistance”. Besides, in [9], the “CD8+ T cell mediated killing of tumor cells” value is “impaired”. Besides, in assay [2], the “Tumor growth: influence on the therapeutic effect of IR and PD-L1 blockade” value is “diminished the anti-tumor effects of IR and PD-L1 blockade”. Moreover, in [10], the “GFRα3 expression on NK cells” value is recorded as “induces GFRα3 expression”.
